Results on nine molecules are retold here after patent US11827699 (dated 2023).

Usually Kd stands for the free concentration of one partner at which half of the binding sites on the other are occupied at equilibrium, for simple one-to-one binding. Lower therefore signals a tighter complex.

What all share (test): SPR
On the technique in general: In SPR one partner is held on a chip, and binding of the other changes the refractive index at the surface.

One experiment has as its target T1, human FcγRIa (human, UniProt P12314).
T1 chain: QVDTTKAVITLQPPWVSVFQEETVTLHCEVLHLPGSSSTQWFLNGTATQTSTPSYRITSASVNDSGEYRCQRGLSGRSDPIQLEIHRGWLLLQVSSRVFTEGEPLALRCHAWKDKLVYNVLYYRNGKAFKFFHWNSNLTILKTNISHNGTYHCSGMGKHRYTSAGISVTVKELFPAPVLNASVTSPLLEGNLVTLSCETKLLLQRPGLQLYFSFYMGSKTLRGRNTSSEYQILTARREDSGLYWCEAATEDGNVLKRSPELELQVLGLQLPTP

The target of a further experiment is human FcγRIIIa V158 (human, UniProt P08637).
Chain of human FcγRIIIa V158 (P08637 17-208 F176V): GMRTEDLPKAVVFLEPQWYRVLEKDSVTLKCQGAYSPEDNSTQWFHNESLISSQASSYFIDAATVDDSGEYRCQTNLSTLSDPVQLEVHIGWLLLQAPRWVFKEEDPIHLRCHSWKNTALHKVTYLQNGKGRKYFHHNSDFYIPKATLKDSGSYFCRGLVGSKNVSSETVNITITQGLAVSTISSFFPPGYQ
A further experiment concerns the target T2, human FcγRIIa H131 (human, UniProt P12318).
T2 chain: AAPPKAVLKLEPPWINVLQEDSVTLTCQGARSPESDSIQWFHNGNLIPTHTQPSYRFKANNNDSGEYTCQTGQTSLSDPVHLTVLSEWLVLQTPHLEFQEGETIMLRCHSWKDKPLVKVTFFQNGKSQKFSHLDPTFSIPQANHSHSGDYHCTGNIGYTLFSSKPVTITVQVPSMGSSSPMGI

For another experiment, the target named is T3, human FcγRIIa R131 (human, UniProt P12318).
T3 chain: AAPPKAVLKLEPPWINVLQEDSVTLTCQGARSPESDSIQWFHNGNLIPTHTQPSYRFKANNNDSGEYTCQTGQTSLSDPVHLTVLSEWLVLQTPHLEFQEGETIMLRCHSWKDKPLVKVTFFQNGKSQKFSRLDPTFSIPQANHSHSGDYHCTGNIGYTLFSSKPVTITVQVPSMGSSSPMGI

In another experiment the target is T4, human FcγRIIb (human, UniProt P31994).
T4 chain: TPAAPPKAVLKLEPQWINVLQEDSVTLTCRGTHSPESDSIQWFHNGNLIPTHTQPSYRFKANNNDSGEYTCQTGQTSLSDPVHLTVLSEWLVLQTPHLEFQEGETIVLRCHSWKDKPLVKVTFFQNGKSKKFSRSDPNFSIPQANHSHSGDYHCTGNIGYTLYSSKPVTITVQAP

B1: IL6R-BP264 (antibody)
chain 1: QVQLQESGPGLVKPSETLSLTCAVSGHSISHDHAWSWVRQPPGEGLEWIGFISYSGITNYNPSLQGRVTISRDNSKNTLYLQMNSLRAEDTAVYYCARSLARTTAMDYWGEGTLVTVSSASTKGPSVFPLAPSSKSTSGGTAALGCLVKDYFPEPVTVSWNSGALTSGVHTFPAVLQSSGLYSLSSVVTVPSSSLGTQTYICNVNHKPSNTKVDKKVEPKSCDKTHTCPPCPAPDLLGDDSVFLFPPKPKDTLMISRTPEVTCVVVDVSEEDGEVKFNWYVDGVEVHNAKTKPREEQDNSTYRVVSVLTVLHQDWLNGKEYKCKVSNKALPRPIEKTISKAKGQPREPQVYTLPPSRDELTKNQVSLTCLVKGFYPSDIAVEWESNGQPENNYKTTPPVLDSDGSFFLYSKLTVDKSRWQQGNVFSCSVMHEALHNHYTQESLSLSP
chain 2: not shown
As to B1, the Kd was determined as 7.4 nM in the experiment with human FcγRIa, 26000 nM with human FcγRIIIa V158, 2800 nM with human FcγRIIa H131 and 350 nM with human FcγRIIa R131.

B2: IL6R-BP445 (antibody)
chain 1: QVQLQESGPGLVKPSETLSLTCAVSGHSISHDHAWSWVRQPPGEGLEWIGFISYSGITNYNPSLQGRVTISRDNSKNTLYLQMNSLRAEDTAVYYCARSLARTTAMDYWGEGTLVTVSSASTKGPSVFPLAPSSKSTSGGTAALGCLVKDYFPEPVTVSWNSGALTSGVHTFPAVLQSSGLYSLSSVVTVPSSSLGTQTYICNVNHKPSNTKVDKKVEPKSCDKTHTCPPCPAPDLLGDDSVFLFPPKPKDTLMISRTPEVTCVVIDVAEEDGEVKFNWYVDGVEVHNAKTKPREEQYNSTYRVVSVLTVLHQDWLNGKEYKCKVSNKALPRPIEKTISKAKGQPREPQVYTLPPSRDELTKNQVSLTCLVKGFYPSDIAVEWESNGQPENNYKTTPPVLDSDGSFFLYSKLTVDKSRWQQGNVFSCSVMHEALHNHYTQESLSLSP
chain 2: not shown
For B2, the Kd was 2 nM with human FcγRIa, 24000 nM in the experiment with human FcγRIIIa V158, 2.6 nM in the experiment with human FcγRIIb and 80 nM with human FcγRIIa R131.

B3: IL6R-BP480 (antibody)
chain 1: QVQLQESGPGLVKPSETLSLTCAVSGHSISHDHAWSWVRQPPGEGLEWIGFISYSGITNYNPSLQGRVTISRDNSKNTLYLQMNSLRAEDTAVYYCARSLARTTAMDYWGEGTLVTVSSASTKGPSVFPLAPSSKSTSGGTAALGCLVKDYFPEPVTVSWNSGALTSGVHTFPAVLQSSGLYSLSSVVTVPSSSLGTQTYICNVNHKPSNTKVDKKVEPKSCDKTHTCPPCPAPDLLGDDSVFLFPPKPKDTLMISRTPEVTCVVVDLSEDDGEVKFNWYVDGVEVHNAKTKPREEQYNSTYRVVSVLTVLHQDWLNGKEYKCKVSNKALPAPIEKTISKAKGQPREPQVYTLPPSRDELTKNQVSLTCLVKGFYPSDIAVEWESNGQPENNYKTTPPVLDSDGSFFLYSKLTVDKSRWQQGNVFSCSVMHEALHNHYTQESLSLSP
chain 2: not shown
On to B3, for which the Kd in the experiment with human FcγRIIIa V158 was 46000 nM; in the experiment with human FcγRIIa H131, 21000 nM; with human FcγRIIb, 200 nM; with human FcγRIIa R131 it was 6300 nM.

B4: IL6R-BP490 (antibody)
chain 1: QVQLQESGPGLVKPSETLSLTCAVSGHSISHDHAWSWVRQPPGEGLEWIGFISYSGITNYNPSLQGRVTISRDNSKNTLYLQMNSLRAEDTAVYYCARSLARTTAMDYWGEGTLVTVSSASTKGPSVFPLAPSSKSTSGGTAALGCLVKDYFPEPVTVSWNSGALTSGVHTFPAVLQSSGLYSLSSVVTVPSSSLGTQTYICNVNHKPSNTKVDKKVEPKSCDKTHTCPPCPAPELLGDDSVFLFPPKPKDTLMISRTPEVTCVVIDVAEEDGEVKFNWYVDGVEVHNAKTKPREEQYNSTYRVVSVLTVLHQDWLNGKEYKCKVSNKALPRPIEKTISKAKGQPREPQVYTLPPSRDELTKNQVSLTCLVKGFYPSDIAVEWESNGQPENNYKTTPPVLDSDGSFFLYSKLTVDKSRWQQGNVFSCSVMHEALHNHYTQESLSLSP
chain 2: not shown
For the molecule B4, the Kd with human FcγRIa was determined as 4.5 nM; with human FcγRIIIa V158, 23000 nM; in the experiment with human FcγRIIb, 2.4 nM; in the experiment with human FcγRIIa R131, 110 nM.

B5: IL6R-BP507 (antibody)
chain 1: QVQLQESGPGLVKPSETLSLTCAVSGHSISHDHAWSWVRQPPGEGLEWIGFISYSGITNYNPSLQGRVTISRDNSKNTLYLQMNSLRAEDTAVYYCARSLARTTAMDYWGEGTLVTVSSASTKGPSVFPLAPSSKSTSGGTAALGCLVKDYFPEPVTVSWNSGALTSGVHTFPAVLQSSGLYSLSSVVTVPSSSLGTQTYICNVNHKPSNTKVDKKVEPKSCDKTHTCPPCPAPDLLGDDSVFLFPPKPKDTLMISRTPEVTCVVIDVAEEDGPVKFNWYVDGVEVHNAKTKPREEQYNSTYRVVSVLTVLHQDWLNGKEYKCKVSNKALPRPIEKTISKAKGQPREPQVYTLPPSRDELTKNQVSLTCLVKGFYPSDIAVEWESNGQPENNYKTTPPVLDSDGSFFLYSKLTVDKSRWQQGNVFSCSVMHEALHNHYTQESLSLSP
chain 2: not shown
With B5, the Kd was 2.6 nM in the experiment with human FcγRIa, 26000 nM in the experiment with human FcγRIIIa V158, 2.9 nM with human FcγRIIb and 100 nM with human FcγRIIa R131.

B6: IL6R-BP428 (antibody)
chain 1: QVQLQESGPGLVKPSETLSLTCAVSGHSISHDHAWSWVRQPPGEGLEWIGFISYSGITNYNPSLQGRVTISRDNSKNTLYLQMNSLRAEDTAVYYCARSLARTTAMDYWGEGTLVTVSSASTKGPSVFPLAPSSKSTSGGTAALGCLVKDYFPEPVTVSWNSGALTSGVHTFPAVLQSSGLYSLSSVVTVPSSSLGTQTYICNVNHKPSNTKVDKKVEPKSCDKTHTCPPCPAPDLLGDDSVFLFPPKPKDTLMISRTPEVTCVVVDVGEEDGEVKFNWYVDGVEVHNAKTKPREEQYNSTYRVVSVLTVLHQDWLNGKEYKCKVSNKALPRPIEKTISKAKGQPREPQVYTLPPSRDELTKNQVSLTCLVKGFYPSDIAVEWESNGQPENNYKTTPPVLDSDGSFFLYSKLTVDKSRWQQGNVFSCSVMHEALHNHYTQESLSLSP
chain 2: not shown
Regarding B6, the Kd in the experiment with human FcγRIIa H131 turned out to be 32000 nM; with human FcγRIIa R131 it was 390 nM.

B7: IL6R-BP438 (antibody)
chain 1: QVQLQESGPGLVKPSETLSLTCAVSGHSISHDHAWSWVRQPPGEGLEWIGFISYSGITNYNPSLQGRVTISRDNSKNTLYLQMNSLRAEDTAVYYCARSLARTTAMDYWGEGTLVTVSSASTKGPSVFPLAPSSKSTSGGTAALGCLVKDYFPEPVTVSWNSGALTSGVHTFPAVLQSSGLYSLSSVVTVPSSSLGTQTYICNVNHKPSNTKVDKKVEPKSCDKTHTCPPCPAPDLLGDDSVFLFPPKPKDTLMISRTPEVTCVVVDVAEEDGEVKFNWYVDGVEVHNAKTKPREEQYNSTYRVVSVLTVLHQDWLNGKEYKCKVSNKALPRPTEKTISKAKGQPREPQVYTLPPSRDELTKNQVSLTCLVKGFYPSDIAVEWESNGQPENNYKTTPPVLDSDGSFFLYSKLTVDKSRWQQGNVFSCSVMHEALHNHYTQESLSLSP
chain 2: not shown
Take B7: the Kd amounted to 1600 nM with human FcγRIIa H131 and 180 nM with human FcγRIIa R131.

B8: IL6R-BP268 (antibody)
chain 1: QVQLQESGPGLVKPSETLSLTCAVSGHSISHDHAWSWVRQPPGEGLEWIGFISYSGITNYNPSLQGRVTISRDNSKNTLYLQMNSLRAEDTAVYYCARSLARTTAMDYWGEGTLVTVSSASTKGPSVFPLAPSSKSTSGGTAALGCLVKDYFPEPVTVSWNSGALTSGVHTFPAVLQSSGLYSLSSVVTVPSSSLGTQTYICNVNHKPSNTKVDKKVEPKSCDKTHTCPPCPAPDLLGDDSVFLFPPKPKDTLMISRTPEVTCVVVDVSEEDGEVKFNWYVDGVEVHNAKTKPREEQDNSTYRVVSVLTVLHQDWLNGKEYKCKVSNKALPAPIEKTISKAKGQPREPQVYTLPPSRDELTKNQVSLTCLVKGFYPSDIAVEWESNGQPENNYKTTPPVLDSDGSFFLYSKLTVDKSRWQQGNVFSCSVMHEALHNHYTQESLSLSP
chain 2: not shown
Take B8: the Kd with human FcγRIa turned out to be 4.5 nM; with human FcγRIIIa V158, 28000 nM; with human FcγRIIa H131, 21000 nM; in the experiment with human FcγRIIb, 92 nM.

B9: IL6R-BP506 (antibody)
chain 1: QVQLQESGPGLVKPSETLSLTCAVSGHSISHDHAWSWVRQPPGEGLEWIGFISYSGITNYNPSLQGRVTISRDNSKNTLYLQMNSLRAEDTAVYYCARSLARTTAMDYWGEGTLVTVSSASTKGPSVFPLAPSSKSTSGGTAALGCLVKDYFPEPVTVSWNSGALTSGVHTFPAVLQSSGLYSLSSVVTVPSSSLGTQTYICNVNHKPSNTKVDKKVEPKSCDKTHTCPPCPAPDLLGDDSVFLFPPKPKDTLMISRTPEVTCVVIDVAEEDGPVKFNWYVDGVEVHNAKTKPREEQDNSTYRVVSVLTVLHQDWLNGKEYKCKVSNKALPRPIEKTISKAKGQPREPQVYTLPPSRDELTKNQVSLTCLVKGFYPSDIAVEWESNGQPENNYKTTPPVLDSDGSFFLYSKLTVDKSRWQQGNVFSCSVMHEALHNHYTQESLSLSP
chain 2: not shown
On to B9, for which the Kd with human FcγRIa was determined as 3.1 nM; with human FcγRIIIa V158, 55000 nM; with human FcγRIIb, 3.4 nM; in the experiment with human FcγRIIa R131, 120 nM.
